Measured values taken from patent publication US20240192201, “BRAIN NATRIURETIC PEPTIDE APTAMER FLUORESCENCE DETECTION DEVICE BASED ON SMART PHONE AND SENSING METHOD OF SAME” (TianJin University, published 2024).

Molecular target: BNP (brain natriuretic peptide) (UniProt P16860 P16860:103-134)
Assay: FRET recovery from carboxylated graphene oxide quencher (40 ug/ml), 100 nmol/L aptamer, pH 7.2-7.4, room temperature, 35 min
Conditions: label: 5'-FAM
Text: The signal response relationship between BNP concentration and fluorescence intensity obtained by detecting BNP in the present invention, its specific detection steps are as follows: [0080] (1) Blank control experiment: individually detect the fluorescence intensity of 100 nmol/L aptamer solution, and set the excitation wavelength as 492 nm, the emission wavelength as 519 nm, and the emission spectrum detection range as 505-610 nm, then use the obtained results as controls. [0081] (2) Mix 100 nmol/L of aptamer solution with 40 ug/ml of carboxylated graphene oxide solution by equal volume, and control the pH value of the solution at 7.2-7.4, and then leave it at room temperature for about 20 min. Then add BNP solution having a series of concentration gradients, respectively, leave it at room temperature for about 35 min, next take out an appropriate amount of mixed solution for fluorescence detection, and record fluorescence spectra at different concentrations. […] With the increase of the BNP concentration, the fluorescence intensity of the solution gradually increases. [0082]

Sequence of BNP (brain natriuretic peptide) (P16860 103-134, one chain of several): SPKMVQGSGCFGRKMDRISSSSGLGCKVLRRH

B1: FAM-labelled BNP aptamer (ssDNA)
DNA: TTTTTTTATACGGGAGCCAACACCACCTCTCACATTATATTGTGAATACTTCGTGCTGTTTAGAGCAGGTGTGACGGAT
- binding result: binds
